{
  "source": "patent US20090312277",
  "target": "p21/WAF1 (UniProt P38936)",
  "sequence (P38936 whole entry)": "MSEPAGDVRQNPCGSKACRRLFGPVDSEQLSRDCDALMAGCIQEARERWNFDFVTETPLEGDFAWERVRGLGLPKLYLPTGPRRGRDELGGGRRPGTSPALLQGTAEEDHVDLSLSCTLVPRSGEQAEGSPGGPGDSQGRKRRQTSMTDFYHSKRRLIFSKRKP",
  "data": [
    {"substance": "cathepsin L", "values": [
      {"measurement": "cleavage in vitro", "value": "p2l/WAF1 is readily cleaved by cathepsin L in vitro"}
    ]}
  ]
}
